Measurements as given in IntAct's records for PubMed 20067578.

B1: Dual specificity mitogen-activated protein kinase kinase 6 (Homo sapiens), P52564 (parent)
chain: MSQSKGKKRNPGLKIPKEAFEQPQTSSTPPRDLDSKACISIGNQNFEVKADDLEPIMELGRGAYGVVEKMRHVPSGQIMAVKRIRATVNSQEQKRLLMDLDISMRTVDCPFTVTFYGALFREGDVWICMELMDTSLDKFYKQVIDKGQTIPEDILGKIAVSIVKALEHLHSKLSVIHRDVKPSNVLINALGQVKMCDFGISGYLVDSVAKTIDAGCKPYMAPERINPELNQKGYSVKSDIWSLGITMIELAILRFPYDSWGTPFQQLKQVVEEPSPQLPADKFSAEFVDFTSQCLKKNSKERPTYPELMQHPFFTLHESKGTDVASFVKLILGD

Variants of: B1
Details: with lrrk2_human LRRK2, Q5S007
Sequence of lrrk2_human LRRK2, Q5S007 (Q5S007 whole entry): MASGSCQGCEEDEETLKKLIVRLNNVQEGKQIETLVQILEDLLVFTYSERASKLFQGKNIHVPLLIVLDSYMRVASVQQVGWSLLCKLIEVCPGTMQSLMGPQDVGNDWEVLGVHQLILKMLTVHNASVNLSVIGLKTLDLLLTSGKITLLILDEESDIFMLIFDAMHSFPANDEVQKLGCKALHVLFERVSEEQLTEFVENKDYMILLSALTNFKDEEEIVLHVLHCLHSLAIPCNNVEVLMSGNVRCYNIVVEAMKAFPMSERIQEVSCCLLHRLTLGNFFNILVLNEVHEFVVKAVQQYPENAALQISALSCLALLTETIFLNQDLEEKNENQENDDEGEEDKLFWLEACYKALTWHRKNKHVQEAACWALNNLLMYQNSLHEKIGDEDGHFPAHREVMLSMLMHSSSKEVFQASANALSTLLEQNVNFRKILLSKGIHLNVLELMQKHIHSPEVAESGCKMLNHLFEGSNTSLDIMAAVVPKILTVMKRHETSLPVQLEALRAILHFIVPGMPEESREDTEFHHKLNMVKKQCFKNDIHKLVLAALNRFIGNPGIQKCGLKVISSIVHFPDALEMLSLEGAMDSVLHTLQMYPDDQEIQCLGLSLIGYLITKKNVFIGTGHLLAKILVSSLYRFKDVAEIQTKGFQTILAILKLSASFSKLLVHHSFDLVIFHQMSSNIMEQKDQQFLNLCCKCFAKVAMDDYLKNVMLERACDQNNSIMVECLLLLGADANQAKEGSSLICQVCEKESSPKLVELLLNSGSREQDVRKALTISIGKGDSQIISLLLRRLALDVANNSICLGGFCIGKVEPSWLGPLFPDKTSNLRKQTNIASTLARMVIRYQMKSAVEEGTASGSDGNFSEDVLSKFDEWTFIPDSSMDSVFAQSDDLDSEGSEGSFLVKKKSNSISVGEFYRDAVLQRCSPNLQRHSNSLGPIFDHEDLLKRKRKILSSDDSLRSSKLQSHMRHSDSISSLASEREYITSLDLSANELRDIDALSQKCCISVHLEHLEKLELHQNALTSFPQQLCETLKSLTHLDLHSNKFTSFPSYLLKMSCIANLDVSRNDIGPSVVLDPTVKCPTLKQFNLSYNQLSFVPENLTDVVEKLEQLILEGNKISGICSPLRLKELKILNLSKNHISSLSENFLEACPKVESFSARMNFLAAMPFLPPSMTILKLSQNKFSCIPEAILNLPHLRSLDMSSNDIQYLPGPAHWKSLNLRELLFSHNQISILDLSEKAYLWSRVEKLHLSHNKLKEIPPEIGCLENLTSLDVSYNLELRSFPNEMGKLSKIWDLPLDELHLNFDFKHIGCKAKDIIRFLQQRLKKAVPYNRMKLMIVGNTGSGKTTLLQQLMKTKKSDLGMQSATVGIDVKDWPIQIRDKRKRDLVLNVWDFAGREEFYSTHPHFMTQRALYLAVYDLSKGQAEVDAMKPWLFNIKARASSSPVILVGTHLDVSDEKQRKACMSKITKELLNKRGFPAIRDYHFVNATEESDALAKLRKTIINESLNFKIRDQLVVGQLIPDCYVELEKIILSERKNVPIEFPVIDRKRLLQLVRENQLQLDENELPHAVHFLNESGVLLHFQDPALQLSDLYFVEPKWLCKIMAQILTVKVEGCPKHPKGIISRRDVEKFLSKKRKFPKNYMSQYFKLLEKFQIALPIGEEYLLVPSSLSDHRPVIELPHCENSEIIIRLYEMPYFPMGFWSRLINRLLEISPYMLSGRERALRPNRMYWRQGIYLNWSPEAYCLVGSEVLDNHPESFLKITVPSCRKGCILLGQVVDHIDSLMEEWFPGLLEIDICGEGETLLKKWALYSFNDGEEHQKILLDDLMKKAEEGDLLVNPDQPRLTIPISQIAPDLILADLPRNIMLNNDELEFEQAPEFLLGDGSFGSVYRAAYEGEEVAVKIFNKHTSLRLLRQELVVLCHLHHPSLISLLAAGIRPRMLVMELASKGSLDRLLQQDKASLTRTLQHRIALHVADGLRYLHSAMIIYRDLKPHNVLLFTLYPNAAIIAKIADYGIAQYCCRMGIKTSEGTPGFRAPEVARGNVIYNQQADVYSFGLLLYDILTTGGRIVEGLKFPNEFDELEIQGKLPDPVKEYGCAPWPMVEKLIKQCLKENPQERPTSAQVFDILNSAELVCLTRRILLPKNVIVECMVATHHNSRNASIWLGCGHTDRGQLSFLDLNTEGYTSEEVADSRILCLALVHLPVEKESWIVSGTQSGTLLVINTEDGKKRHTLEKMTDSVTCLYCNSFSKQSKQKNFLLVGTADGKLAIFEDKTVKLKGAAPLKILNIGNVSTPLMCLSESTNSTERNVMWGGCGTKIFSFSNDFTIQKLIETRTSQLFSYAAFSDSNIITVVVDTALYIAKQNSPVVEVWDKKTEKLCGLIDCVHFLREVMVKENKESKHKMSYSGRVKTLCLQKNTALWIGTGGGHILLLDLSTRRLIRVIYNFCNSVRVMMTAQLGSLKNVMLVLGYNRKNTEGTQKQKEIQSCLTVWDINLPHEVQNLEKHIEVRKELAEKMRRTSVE

For MSQSKGKKRNPGLKIPKEAFEQPQTSSTPPRDLDSKACISIGNQNFEVKADDLEPIMELGRGAYGVVEKMRHVPSGQIMAVARIRATVNSQEQKRLLMDLDISMRTVDCPFTVTFYGALFREGDVWICMELMDTSLDKFYKQVIDKGQTIPEDILGKIAVSIVKALEHLHSKLSVIHRDVKPSNVLINALGQVKMCDFGISGYLVDSVAKTIDAGCKPYMAPERINPELNQKGYSVKSDIWSLGITMIELAILRFPYDSWGTPFQQLKQVVEEPSPQLPADKFSAEFVDFTSQCLKKNSKERPTYPELMQHPFFTLHESKGTDVASFVKLILGD [K82A], which “effect of a mutation on the interaction” value is on record?
The value was “decreasing interaction”.
